{"source": "patent US20190382462A1", "about": "(published 2019)", "binders": {"B1": {"name": "Biotinylated CRF (corticotropin-releasing factor) (peptide, UniProt P06850 154-194, looked up)", "peptide": "SEEPPISLDLTFHLLREVLEMARAEQLAQQAHSNRKLMEII", "modifications": "ends and bridges not checked; also: biotinylated, site not given here", "notes": "Immobilized on an avidin-coated ELISA plate; also called corticotropin-releasing hormone; CRH"}}, "biological_target": "HRP-conjugated protein-A (UniProt P38507 37-477, HRP conjugate)", "assay": "ELISA: HRP-protein A added to immobilized biotinylated CRF in the absence of CRFBP-Fc", "from_the_text": "Biotinylated CRF was immobilized on an avidin-coated ELISA plate. […] OD=optical density.", "note": "Where no end group is shown, it is not given here."}
{"binder": "B1", "values": [{"measurement": "binding result", "value": "no binding"}]}
